Data as given in US20090181018A1 (Eli Lilly, published 2009).
Substitutions are numbered along the chain they refer to. Numbers in names are those of the source.

How the values were obtained:
human des-acyl ghrelin = target: T1, human des-acyl ghrelin (human); assay: SPR (BIAcore 2000), Mab amine-coupled to CM5 chip, des-acyl ghrelin as analyte, about 25 C
T1 construct: also called unacylated human ghrelin
Description: (§1) Except where noted, all reagents and materials are purchased from BIAcore® AB (Uppsala, Sweden). All measurements are performed at about 25° C. All samples containing human ghrelin (full length, C-8 acylated or des-acyl) and anti-ghrelin Mabs are diluted in HBS-EP buffer (150 mM sodium chloride, 3 mM EDTA, 0.005% (w/v) surfactant P-20, and 10 mM HEPES, pH 7.4). For all of the Mabs, the antibody is directly coupled to a CM5 chip using the amine-coupling chemistry described below, aiming for a surface density of between 800-1000 response units (RU). Flow cells (1-4) are activated for 7 minutes with a 1:1 mixture of 0.1 M N-hydroxysuccinimide and 0.1 M 3-(N,N-dimethylamino)propyl-N-ethylcarbodiimide at a flow rate of 10 μl/min. The Mab is diluted to 10 μg/mL in 10 mM sodium acetate, pH 4.5, and manually injected over all four flow cells at a flow rate of 10 μl/min. The surface density is monitored, and additional capture antibody is injected as needed to each individual cell until all flow cells reach a surface density of 800-1000 RU. Surfaces are blocked with a seven minute injection of 1 M ethanolamine-HCl, pH 8.5(10 μl/min). To ensure complete removal of any noncovalently bound capture antibody, 15 μl of 10 mM glycine, pH 1.5, are injected twice. Running buffer for kinetic experiments is HBS-EP buffer (150 mM sodium chloride, 3 mM EDTA, 0.005% (w/v) surfactant P-20, and 10 mM HEPES, pH 7.4).
(§2) Collection of kinetic binding data is performed at maximum flow rate (100 μl/min) and a low surface density to minimize mass transport effects. Each analysis cycle consists of: (i) 200 μl injection (2 min.) of ghrelin (concentration range of 50 nM to 0.39 nM in 2-fold dilution increments) over all four flow cells with flow cell 1 as the reference flow cell; (ii) 20 min. dissociation (buffer only flow); (iii) regeneration of chip surface with a 15 sec injection of 10 mM glycine, pH 1.5; and (iv) a 2 min. stabilization time before the start of the next cycle. The signal is monitored as flow cell 2 minus flow cell 1, flow cell 3 minus flow cell 1, and flow cell 4 minus flow cell 1. Samples and a buffer blank are injected in duplicate in a random order. Data are processed using BIAevaluation v.4.1 software and data are fit to a 1:1 binding model in either BIAevaluation v.4.1 or CLAMP global analysis software.

[1] = target: T2, C-8 acylated human ghrelin (1-28) (human, n-octanoyl (C8) group on Ser3); assay: SPR (BIAcore 2000), Mab amine-coupled to CM5 chip, ghrelin as analyte, about 25 C
T2 construct: 28-residue ghrelin, octanoylated at Ser3; the analyte in SPR and the agonist in the FLIPR assay; also called C8 acylated ghrelin; full length, C-8 acylated human ghrelin
T2 sequence (peptide, as listed by the source): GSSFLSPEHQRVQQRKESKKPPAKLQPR
Description: as §1, §2

[2] = target: T2, C-8 acylated human ghrelin (1-28); assay: SPR (BIAcore 2000), Fab captured by goat anti-human kappa, ghrelin as analyte, about 25 C
Description: The affinity (KD) of humanized/optimized anti-ghrelin Fabs disclosed in Example 1 for C-8 acylated human ghrelin (1-28) is measured using a BIAcore™ 2000 instrument containing a CM5 sensor chip. Except where noted, all reagents and materials are purchased from BIAcore™ AB (Uppsala, Sweden). Measurements are performed at about 25° C. Samples containing human ghrelin are dissolved in HBS-EP buffer (150 mM sodium chloride, 3 mM EDTA, 0.005% (w/v) surfactant P-20, and 10 mM HEPES, pH 7.4). A capture antibody, goat anti-mouse Kappa (Southern Biotechnology, Inc.) for the D4 and D4 7.1 Fabs, and goat anti-human kappa (Jackson ImmunoResearch) for all other Fabs, hereafter termed “capture antibody,” is immobilized onto flow cells using amine-coupling chemistry. Flow cells (1-4) are activated for 7 minutes with a 1:1 mixture of 0.1 M N-hydroxysuccinimide and 0.1 M 3-(N,N-dimethylamino)propyl-N-ethylcarbodiimide at a flow rate of 10 μl/min. Goat anti-mouse Kappa or goat anti-human kappa (30 μg/mL in 10 mM sodium acetate, pH 4.5) is manually injected over all 4 flow cells at a flow rate of 10 μl/min. The surface density is monitored and additional capture antibody is injected if needed to individual cells until all flow cells reach a surface density of 4500-5000 response units (RU). Surfaces are blocked with a 7 minute injection of 1 M ethanolamine-HCl, pH 8.5 (10 μl/min). To ensure complete removal of any noncovalently bound capture antibody, 15 μl of 10 mM glycine, pH 1.5, is injected twice. Running buffer used for kinetic experiments contains 10 mM HEPES, pH 7.4, 150 mM NaCl, 0.005% P20.
Collection of kinetic binding data is performed at maximum flow rate (100 μl/min) and a low surface density to minimize mass transport effects. Each analysis cycle consists of: (i) capture of 300-350 RU of Fabs (BioSite) by injection of 5-10 μl of 5 μg/ml solution over flow cell 2, 3 and 4 for different Fabs at a flow rate of 10 μl/min., (ii) 200 μl injection (2 min.) of human ghrelin (concentration range of 50 nM to 0.39 nM in 2-fold dilution increments) over all 4 flow cells with flow cell 1 as the reference flow cell, (iii) 20 min. dissociation (buffer flow), (iv) regeneration of capture antibody surface with a 15 seq injection of 10 mM glycine, pH 1.5, (v) a 30 sec blank injection of running buffer, and (vi) a 2 min. stabilization time before the start of the next cycle.

[3] = target: T2, C-8 acylated human ghrelin (1-28); assay: SPR (BIAcore 2000), half-life of the complex
Description: The affinity (KD) of humanized/optimized anti-ghrelin Fabs disclosed in Example 1 for C-8 acylated human ghrelin (1-28) is measured using a BIAcore™ 2000 instrument containing a CM5 sensor chip. Except where noted, all reagents and materials are purchased from BIAcore™ AB (Uppsala, Sweden). Measurements are performed at about 25° C. Samples containing human ghrelin are dissolved in HBS-EP buffer (150 mM sodium chloride, 3 mM EDTA, 0.005% (w/v) surfactant P-20, and 10 mM HEPES, pH 7.4). A capture antibody, goat anti-mouse Kappa (Southern Biotechnology, Inc.) for the D4 and D4 7.1 Fabs, and goat anti-human kappa (Jackson ImmunoResearch) for all other Fabs, hereafter termed “capture antibody,” is immobilized onto flow cells using amine-coupling chemistry. Flow cells (1-4) are activated for 7 minutes with a 1:1 mixture of 0.1 M N-hydroxysuccinimide and 0.1 M 3-(N,N-dimethylamino)propyl-N-ethylcarbodiimide at a flow rate of 10 μl/min. Goat anti-mouse Kappa or goat anti-human kappa (30 μg/mL in 10 mM sodium acetate, pH 4.5) is manually injected over all 4 flow cells at a flow rate of 10 μl/min. The surface density is monitored and additional capture antibody is injected if needed to individual cells until all flow cells reach a surface density of 4500-5000 response units (RU). Surfaces are blocked with a 7 minute injection of 1 M ethanolamine-HCl, pH 8.5 (10 μl/min). […]

[4] = target: T2, C-8 acylated human ghrelin (1-28); assay: SPR (BIAcore 2000), half-life of the complex calculated from koff
Description: as §1, with “Surfaces are blocked with a seven minute injection of 1 M ethanolamine-HCl, pH 8.5(10 μl/min). To ensure complete removal of any noncovalently bound capture antibody, 15 μl of 10 mM glycine, pH 1.5, are injected twice. Running buffer for kinetic experiments is HBS-EP buffer (150 mM sodium chloride, 3 mM EDTA, 0.005% (w/v) surfactant P-20, and 10 mM HEPES, pH 7.4).” left out
Collection of kinetic binding data is performed at maximum flow rate (100 μl/min) and a low surface density to minimize mass transport effects. […] The signal is monitored as flow cell 2 minus flow cell 1, flow cell 3 minus flow cell 1, and flow cell 4 minus flow cell 1. […]

[5] = target: T2, C-8 acylated human ghrelin (1-28); assay: cell-based or functional assay

B1: Mab D52N (antibody, rat IgG1, V domains shown)
VH: QVQLVQSGAEVKKPGASVKVSCKVSGYTFTSTWMHWVRQAPGKGLEWMGYINPSTGYTEYTQKFKDRVTMTEDTSTDTAYMELSSLRSEDTAVYYCATDGYDEDYWGQGTTVTVSS
VL: DIVMTQSPLSLPVTPGEPASISCRSSDSLGHSSGHTYLSWYLQKPGQSPGLLIYKVSNRFDGVPDRFSGSGSGTDFTLKISRVEAEDVGVYYCSQSTLVPWTFGQGTKLEIKD
In the case of B1, the Kd (human des-acyl ghrelin) is reported as 1.05 nM, the koff (human des-acyl ghrelin) is reported as 0.0343 s⁻¹ and the kon (human des-acyl ghrelin) is reported as 3.26e+07 M⁻¹ s⁻¹.

B2: Mab A4 (antibody, V domains shown)
VH: B1 VH with N52D, E103F
VL: B1 VL with S33T, H35F
In the case of B2, the Kd [1] is reported as 0.074 nM, the kon [1] is reported as 4.44e+06 M⁻¹ s⁻¹ and the kon (human des-acyl ghrelin) is reported as 4.56e+06 M⁻¹ s⁻¹.

B3: Fab S28D (Fab, V domains shown)
VH: B1 VH with N52D
VL: DIVMTQSPLSLPVTPGEPASISCRSSDSLGHSDGNTYLSWYLQKPGQSPGLLIYKVSNRFDGVPDRFSGSGSGTDFTLKISRVEAEDVGVYYCSQSTLVPWTFGQGTKLEIK
notes: The Fab was captured by goat anti-human kappa
In the case of B3, the kon [2] is reported as 3e+07 M⁻¹ s⁻¹.

B4: Fab A2 (Fab, V domains shown)
VH: B1 VH with N52D, E103F
VL: B3 VL with D33T, N35F
notes: The Fab was captured by goat anti-human kappa, so it has a human kappa light chain
Binder B4 has a t1/2 [3] of 43 min, a Kd [2] of 0.043 nM and a koff [2] of 0.00027 s⁻¹. For the same binder, the kon [2] was 6.34e+06 M⁻¹ s⁻¹.

B5: Mab A5 (antibody, rat IgG1, V domains shown)
VH: B1 VH with N52D, E103Y
VL: B1 VL with S28H, S33T, H35Y
B5 gave a koff [1] of 5.74e-05 s⁻¹, a koff (human des-acyl ghrelin) of 6.67e-05 s⁻¹ and a t1/2 [4] of 201 min.

B6: Mab D27Q (antibody, rat IgG1, V domains shown)
VH: B1 VH with N52D
VL: B1 VL with D27Q
B6 was tested, and the “IC50, in vitro FLIPR calcium assay (intracellular calcium in AV12 cells expressing GHS-R1a)” value [5] was 1.12 nM and the Kd (human des-acyl ghrelin) was 0.176 nM.

B7: Mab S34H (antibody, rat IgG1, V domains shown)
VH: B1 VH with N52D
VL: B1 VL with S39H
For B7, the Kd [1] was 0.4 nM, the koff [1] was 0.0169 s⁻¹ and the kon [1] was 4.24e+07 M⁻¹ s⁻¹. It also gave a t1/2 [4] of 1 min.

B8: Fab T32Y (Fab, V domains shown)
VH: B1 VH with T32Y, N52D
VL: B3 VL with D33S, N35H
notes: as for B3
For B8, the t1/2 [3] was 1 min, the Kd [2] was 1 nM and the koff [2] was 0.00875 s⁻¹.
